Measurements from US20260234660A1 (Regeneron, published 2026).
Like-named read-outs stand apart in the source and are kept apart here. Blank lines part the entries; values can stand above or below the binder they belong to.

Assays:
[1] = target: T1, human CACNG1, cell surface-expressed (human, UniProt Q06432 1-222); assay: cell-based or functional assay
[2] = target: T1, human CACNG1, cell surface-expressed; assay: cell-based or functional assay; remark: listed apart in the source
[3] = target: T1, human CACNG1, cell surface-expressed; assay: cell-based or functional assay; remark: listed apart in the source
[4] = target: T2, nanodisc embedded human CACNG1 expressed with a C-terminal PADRE-Flag-His tag (human, UniProt Q06432 1-222); assay: SPR (Biacore T200), 25 C, anti-His-captured human CACNG1 nanodisc, antibody as analyte
T2 construct: Membrane protein (gamma-1 subunit of the skeletal muscle L-type calcium channel) in a nanodisc; also called human CACNG1 nanodisc; CACNG1 nanodisc; not shown: C-terminal PADRE-Flag-His tag
Experimental: Equilibrium dissociation constants (KD values) for nanodisc embedded human CACNG1 expressed with a C-terminal PADRE-Flag-His tag (human CACNG1 nanodisc) binding to purified anti-hCACNG1 antibodies were determined using a real-time surface plasmon resonance biosensor technology with a Biacore T200 instrument. The CM5 Biacore sensor surface was derivatized by amine coupling with a monoclonal mouse anti-His antibody (Cytiva; Marlborough, MA). All Biacore binding studies were performed in a buffer composed of 0.01M HEPES, 0.15M NaCl, 1 mM CaCl₂), 0.5 mM MgCl₂, pH 7.4 (HBS-N++ running buffer). Different concentrations of anti-hCACNG1 antibodies (ranging from 300 nM to 12 nM in 5-fold serial dilutions) prepared in HBS-N++ running buffer were injected over the captured human CACNG1 nanodisc at a flow rate of 30 μL/minute. Antibody association was monitored for 2 minutes while dissociation was monitored in HBS-N++ running buffer for 5 minutes. At the end of each cycle, the human CACNG1 nanodisc capture surface was regenerated using three 10 second injections of 10 mM Gly pH1.5. All binding kinetics experiments were performed at 25° C.

[5] = target: T3, mouse CACNG1 on myofibers of wildtype mice (mouse, UniProt O70578 1-223); assay: immunofluorescence on live single myofibers ex vivo (wildtype mice), fluorescent secondary antibody, confocal imaging
T3 construct: whole, on cells; Target inferred from the cells: the wildtype myofibers carry mouse CACNG1, which the CACNG1^Hu/Hu mice have replaced by human CACNG1; also called wildtype (WT) myofibers
T3 sequence (looked up): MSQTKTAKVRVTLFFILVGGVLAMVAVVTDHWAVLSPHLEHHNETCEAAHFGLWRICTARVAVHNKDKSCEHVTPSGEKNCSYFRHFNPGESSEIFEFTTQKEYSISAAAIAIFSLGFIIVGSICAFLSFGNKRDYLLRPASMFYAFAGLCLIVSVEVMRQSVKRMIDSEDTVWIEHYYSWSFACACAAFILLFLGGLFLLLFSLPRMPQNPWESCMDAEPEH
Experimental: Single myofibers were isolated from either wildtype mice, mice that were homozygous for the deletion of CACNG1 (referred to as CACNG1 knockout mice), or mice that were homozygous for the expression of human CACNG1 in place of mouse CACNG1 (referred to as CACNG1^{Hu/Hu}). The gastrocnemius muscle was removed, collagenase digested, and single myofibers were isolated, washed, and incubated overnight at 37° C. at 5% C02, in DMEM+10% horse serum. […] Myofibers were then washed twice in DMEM+10% horse serum, and subsequently incubated with 10 ug/mL of fluorescent-conjugated secondary antibodies for 30 minutes, washed twice in DMEM+10% horse serum, and then fixed with 4% paraformaldehyde (PFA) for 15 minutes at room temperature. Single fibers were then washed twice with PBS, stained with Hoechst for 5 minutes, washed once more with PBS, then transferred to microscope slides, coverslipped, and imaged using a Zeiss LSM 710 confocal microscope.

[6] = target: T1, human CACNG1, cell surface-expressed; assay: cell-based or functional assay; remark: listed apart in the source
[7] = target: T1, human CACNG1, cell surface-expressed; assay: cell-based or functional assay; remark: listed apart in the source
[8] = target: T1, human CACNG1, cell surface-expressed; assay: cell-based or functional assay; remark: listed apart in the source
[9] = target: T1, human CACNG1, cell surface-expressed; assay: cell-based or functional assay; remark: listed apart in the source
[10] = target: T1, human CACNG1, cell surface-expressed; assay: cell-based or functional assay; remark: listed apart in the source
[11] = target: T1, human CACNG1, cell surface-expressed; assay: cell-based or functional assay; remark: listed apart in the source

T1 sequence (Q06432 whole entry): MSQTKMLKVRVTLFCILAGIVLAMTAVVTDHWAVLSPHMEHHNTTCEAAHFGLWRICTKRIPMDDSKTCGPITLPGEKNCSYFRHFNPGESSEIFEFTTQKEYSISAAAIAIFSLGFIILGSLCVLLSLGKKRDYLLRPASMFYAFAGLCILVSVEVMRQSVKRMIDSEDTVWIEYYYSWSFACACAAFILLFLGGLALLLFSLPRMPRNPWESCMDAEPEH
T2 sequence (Q06432 whole entry): as above

binding result [5]: no binding (tested: 100 nM)
B5: H1M31941N (antibody, mouse IgG1, kappa, V domains shown)
VH: QVQLVQSGAEVKKPGASVKVSCKASGYAFTTYGITWVRQAPGQGLEWMGWISAYNGNTNYAEKVQGRFTMTTDTSTNTAYMELRSLRSDDTAVYFCARKGHYGSGTYYNPFGFDFWGQGTMVTVSS
VL: EIMLMQSPGTLSLSPGERATLSCRASQSVSSSYLAWYQQKPGQAPRLLIYGASSRATDIPDRFSGSGSGTDFTLTISRLEPEDFAVYFCQQYYGSPWTFGQGTKVEIKR
notes: also called antibody designation 8

EC50; androgen receptor luciferase reporter (RLU), hCACNG1.AR.Luc LNCaP cells, 24 hours [9]: 214 nM | EC50; androgen receptor luciferase reporter (RLU), hCACNG1.AR.Luc LNCaP cells, 48 hours [10]: 213 nM | EC50; androgen receptor luciferase reporter (RLU), hCACNG1.AR.Luc LNCaP cells, 72 hours [11]: 185 nM
B6: REGN14573-M3004 (antibody, V domains shown)
VH: EVQLVESGGNLVQPGGSLRLSCAASGFTFTSHAMNWVRQAPGKGLEWVSVITGRGFDTHYADSVKGRFTISRDISKNTLYLQMNSLRAEDTAVYYCAKGLYDSGNYYIDYWGQGTLVTVSS
VL: QSVLTQPPSVSAAPGQKVTISCSGSSSNIGNNYVSWYQQLPGTAPKLLIYDNNKRPSGIPDRFSGSKSGTSATLGITGLQTGDEADYYCGTWDLSLSFNWVFGGGTKLTVLG
modifications: N180Q in the constant region; linker-payload M3004 (VC-PAB linker, DHT), DAR ~4

EC50; androgen receptor luciferase reporter (RLU), hCACNG1.AR.Luc LNCaP cells, 24 hours [9]: 6.75 nM | EC50; androgen receptor luciferase reporter (RLU), hCACNG1.AR.Luc LNCaP cells, 48 hours [10]: 6.04 nM | EC50; androgen receptor luciferase reporter (RLU), hCACNG1.AR.Luc LNCaP cells, 72 hours [11]: 7.36 nM
B7: REGN14647-M3004 (antibody, V domains shown)
VH: QVQLVESGGGVVQPGRSLRLSCTASGITFRNYGMHWVRQAPGKGLEWVAVMWYDGSNKYYADSVKGRFTISGDNSKVYLQMNSLRAEDTAVYYCARRGTIRTAAPFDYWGQGTLVTVSS
VL: not shown
modifications: N180Q in the constant region; linker-payload M3004 (VC-PAB linker, DHT), DAR ~4

The remaining lines, values behind:

B1: REGN5972-M3004 (antibody, V domains shown)
VH: QVQLVESGGGVVQPGRSLRLSCTASGFTFRSYGMHWVRQAPGKGLEWVSVIWIDGNNIYYADSVKGRFTISRDNSKNTLYLQMDSLRAEDTAVYYCARRLAITSAAPFDYWGQGTLVTVSS
VL: not shown
modifications: N180Q in the constant region (heading of the 2nd table, row 736); linker-payload M3004 (VC-PAB linker, DHT)
EC50; androgen receptor luciferase reporter (RLU), hCACNG1.AR.Luc LNCaP cells, 24 hours [1]: 19 nM | EC50; androgen receptor luciferase reporter (RLU), hCACNG1.AR.Luc LNCaP cells, 48 hours [2]: 6.49 nM | EC50; androgen receptor luciferase reporter (RLU), hCACNG1.AR.Luc LNCaP cells, 72 hours [3]: 7.79 nM

B2: H4H31265P2/REGN5972 (antibody, V domains shown)
VH: QVQLVESGGGVVQPGRSLRLSCTASGFTFRSYGMHWVRQAPGKGLEWVSVIWIDGNNIYYADSVKGRFTISRDNSKNTLYLQMDSLRAEDTAVYYCARRLAITSAAPFDYWGQGTLVTVSS
VL: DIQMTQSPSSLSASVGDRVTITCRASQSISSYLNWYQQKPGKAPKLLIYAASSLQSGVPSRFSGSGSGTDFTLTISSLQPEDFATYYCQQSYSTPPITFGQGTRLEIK
notes: also called antibody designation 7
mAb Bound at 300 nM (RU) [4]: 14 RU | binding result [5]: no binding (tested: 100 nM)

B3: REGN14572-M3004 (antibody, V domains shown)
VH: QVQLVESGGGVVQPGRSLRLSCAASGFTFSTYGMHWVRQAPGKGLEWVAVIWHDGSDKYYVDSVKGRFSIARDNSKNTLYLQMNSLRVEDTGIYYCARRGIRGTVFDHWGLGTLVTVSS
VL: DIQMTQSPSTLSASVGDRVTLTCRASQSISNKLAWYQQKPGKAPNLLIYKASNLESGVPSRFSGSGSGTEFTLTISSLQPDDFATYYCQQYNSYSWTFGQGTKVEIKR
EC50; androgen receptor luciferase reporter (RLU), hCACNG1.AR.Luc LNCaP cells, 24 hours [6]: 11.2 nM | EC50; androgen receptor luciferase reporter (RLU), hCACNG1.AR.Luc LNCaP cells, 48 hours [7]: 11.9 nM | EC50; androgen receptor luciferase reporter (RLU), hCACNG1.AR.Luc LNCaP cells, 72 hours [8]: 10.3 nM

B4: H2aM31944N (antibody, mouse IgG2a, kappa, V domains shown)
VH: QVQLVESGGGVVQPGRSLRLSCEASGITFRNYGMHWVRQAPGKGLEWVAVMWYDGSNKYYADSVKGRFTISRDNSKNTVYLQMNSLRAEDTAVYYCARRGHIATAAPFDYWGQGTLVTVSS
VL: DIQMTQSPSSLSASVGDRVTISCRASQSISSYLNWYQQKPGKAPKVLMYAASSLQSGVPSRFSGSGSGTDFTLTISSLQPEDFATYYCQQSYSTPPITFGQGTRLEIKR
notes: also called antibody designation 6
mAb Bound at 300 nM (RU) [4]: 16 RU

B8: REGN14570-M3004 (antibody, V domains shown)
VH: QVQLQQWGAGLLKPSATLSRTCAVYGGSFSGYYWNWIRQSPGKGLEWIGEILHSGRTNYNPSLKSRVTISVDTSKNQFSLKLTSVTAADTAVYYCAGRIAARHGWFDPWGQGTLVTVSS
VL: DIQMTQSPSSVSTSVGDRVTISCRASQDIRKWLAWYQQKPGKAPKLLIYATSSLQSGVPSRFSGSGSGTDFTLTISSLQPEDFATYFCQQANSFPFTFGQGTKLEIKR
EC50; androgen receptor luciferase reporter (RLU), hCACNG1.AR.Luc LNCaP cells, 24 hours [6]: 2 nM | EC50; androgen receptor luciferase reporter (RLU), hCACNG1.AR.Luc LNCaP cells, 48 hours [7]: 5.83 nM | EC50; androgen receptor luciferase reporter (RLU), hCACNG1.AR.Luc LNCaP cells, 72 hours [8]: 6.65 nM
